According to US20070212355A1 (priority 2005, published 2007):
Ends that are not written are not given here.

Columns and labels:
mutated human GLP-2R [1] = biological target: T1, mutated human GLP-2R (Homo sapiens, UniProt O95838, E512D/G511A/L513V); assay: cAMP expression assay in HEK 293E clonal cell line expressing mutated human GLP-2R; type: cell-based; conditions: for activity relative to wild type GLP-2 (times less): from Table 5 EC50 values; for EC50: Table 2, mimetibodies with Pro substitution, read-out: EC50
T1 construct: expressed in transfected cells; host or cells: HEK 293E clonal cell line
T1 sequence (O95838 1-553 G511A/E512D/L513V): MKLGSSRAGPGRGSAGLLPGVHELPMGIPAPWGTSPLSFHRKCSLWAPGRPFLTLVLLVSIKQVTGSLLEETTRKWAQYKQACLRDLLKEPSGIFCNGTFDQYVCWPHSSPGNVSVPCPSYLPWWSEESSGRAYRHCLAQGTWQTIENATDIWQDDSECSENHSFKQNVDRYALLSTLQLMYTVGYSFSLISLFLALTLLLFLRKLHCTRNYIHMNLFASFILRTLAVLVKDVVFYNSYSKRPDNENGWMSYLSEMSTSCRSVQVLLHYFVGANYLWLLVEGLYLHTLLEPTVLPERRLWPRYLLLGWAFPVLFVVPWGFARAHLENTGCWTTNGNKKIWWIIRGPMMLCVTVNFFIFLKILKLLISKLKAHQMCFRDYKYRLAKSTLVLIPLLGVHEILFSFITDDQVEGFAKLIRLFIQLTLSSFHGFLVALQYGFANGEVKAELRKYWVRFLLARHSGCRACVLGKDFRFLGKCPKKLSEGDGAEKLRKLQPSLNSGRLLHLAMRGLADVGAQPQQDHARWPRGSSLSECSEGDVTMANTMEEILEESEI
From the text: To achieve this goal, a clonal cell line expressing a mutated human GLP-2R was generated by transfecting HEK 293E cells. The mutated human GLP-2R differs from the wild-type human GLP-2R (SEQ ID NO: 35) at three amino acid positions within the C-terminal intracellular region (SEQ ID NO: 36).
The cAMP expression was quantitated using the cAMP Direct Screen System (Cat. No. CSD 200, Applied Biosystems, Bedford, Mass.).
This assay was based on the cAMP Direct Screen System from Applied Biosystems utilizing a cell line expressing mutated huGLP-2R in HEK 293E cells. Peptide at concentrations ranging from 0.01 nM to 1.0 uM in PBS with 0.5% BSA was added to ˜50,000 cells suspended in 96-well plates. After a 30-minute incubation at 37° C., Lysis Buffer followed by luminescence reagents (Applied Biosystems) was added according to the manufacturers' procedures (Applied Biosystems Luminescence protocol: cAMP-Screen Direct System). Luminescence was quantitated using a TopCount liquid scintillation analyzer (PerkinElmer), and data was processed using Softmax software (Molecular Devices Corporation).

[2] = CD spectra secondary structure of peptides; type: physicochemical; conditions: 0.2 mg/mL in PBS, 25° C.
Experimental: The secondary structures of tested peptides were determined using 0.2 mg/mL peptide solutions in PBS. Briefly, CD spectra were collected in triplicate at 1 nm intervals at 25° C. in 0.1 cm path length cell. Secondary structures were determined by fitting of the CD spectra using CD spectra software (CD Spectra Deconvolution software 2.1). All tested peptides contained peaks corresponding to the presence of alpha helices.

[3] = SEC-SLS self-association of peptides in PBS (pH 7.5); type: physicochemical; conditions: 1 mg/ml
Experimental: The self-association poses a challenge to the development and manufacturing of a homogeneous therapeutic.
Solution molecular weight of the peptides was measured by SEC-SLS. Briefly, peptide solutions in PBS (pH 7.5) at 0.4 to 2.0 mg/mL were fractionated over a Superdex peptide column (Amersham Pharmacia). The eluted peaks were monitored by static light scattering at 690 nm and solution molecular weight was determined at UV 280 nm using the Astra software package (Wyatt Inc.).

[4] = Incubation with U937 cell lysate, SDS-PAGE (proteolysis resistance); type: in vitro ADME; conditions: 0, 12, 24 hours; in comparison with A2G GLP-2 mimetibody (SEQ ID NO: 5); FIG. 1
Experimental: The purified Pro substitution variants were incubated with U937 cell lysate in the presence of CompleteMini protease inhibitor tablets (Cat. No. 1 836 153, Roche Applied Science, Indianapolis, Ind.) for 0, 12, or 24 hours. Afterwards, GLP-2 mimetibody variants were purified using Protein A beads and resolved on a SDS-PAGE gel.

[5] = biological target: mutated human GLP-2R (human) (UniProt O95838); assay: cell-based or functional assay
[6] = biological target: the molecule itself; assay: SEC-SLS, self-association in PBS pH 7.5
mutated human GLP-2R [7] = biological target: T2, mutated human GLP-2R (human, UniProt O95838 1-553); assay: cell-based or functional assay
T2 chain: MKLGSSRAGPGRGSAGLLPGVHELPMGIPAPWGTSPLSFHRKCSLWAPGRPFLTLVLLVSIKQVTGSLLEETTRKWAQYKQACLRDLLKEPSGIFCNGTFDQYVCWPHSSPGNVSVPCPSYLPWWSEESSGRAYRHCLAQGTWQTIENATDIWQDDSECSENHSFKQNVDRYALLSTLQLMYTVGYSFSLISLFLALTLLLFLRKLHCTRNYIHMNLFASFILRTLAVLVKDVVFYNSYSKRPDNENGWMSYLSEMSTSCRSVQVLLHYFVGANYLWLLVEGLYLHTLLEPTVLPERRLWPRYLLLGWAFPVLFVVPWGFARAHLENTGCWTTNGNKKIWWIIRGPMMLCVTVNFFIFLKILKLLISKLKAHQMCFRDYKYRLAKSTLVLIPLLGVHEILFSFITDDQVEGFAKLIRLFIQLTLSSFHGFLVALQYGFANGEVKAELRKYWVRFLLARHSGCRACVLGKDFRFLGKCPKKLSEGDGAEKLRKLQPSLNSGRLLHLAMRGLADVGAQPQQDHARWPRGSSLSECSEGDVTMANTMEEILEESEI

mutated human GLP-2R [8] = biological target: T2, mutated human GLP-2R; assay: cell-based or functional assay
[9] = SEC-SLS analysis of mimetibodies (monomer/dimer); type: physicochemical; conditions: purified from HEK 293E/HEK 293 expression

What does the source list for “HGDGSFSDEMNTILDGQAARDFINWLIQTKITD [SEQ ID NO: 55]”?
activity relative to wild type GLP-2 (times less) (mutated human GLP-2R [1]): 2 ×; Random coil (percentage) [2]: 41.4%; Helix (percentage of helical structure) ([2]; listed as GLP-2(A2G, N16G, L17Q)): 17.0%; SEC-SLS elution / self-association state [3]: mainly monomeric peptide

Which results are given for “HGDGSFSDEMNTILDNQAARDFINWLIQTKITD [SEQ ID NO: 54]”?
activity relative to wild type GLP-2 (times less) (mutated human GLP-2R [1]): 3 ×; Random coil (percentage) [2]: 41.8%; Helix (percentage of helical structure) ([2]; listed as GLP-2(A2G, L17Q)): 16.9%; SEC-SLS elution / self-association state [3]: mainly monomeric peptide

For “SEQ ID NO: 43: GLP-2 mimetibody Pro substitution variant; core HGDGSFSDEMNTILDNLAARDFINWLIQTKITDGSGGGSGALVAVPSESKYGPPCPPCP (Mimetibody)”, which EC50 (mutated human GLP-2R [1]) is on record?
The EC50 was 4.8 nM.

What about the “degradation after incubation with U937 cell lysate” value [4] of the same molecule?
The value was “less degradation”.

What does the source list for “SEQ ID NO: 44: GLP-2 mimetibody Pro substitution variant; core HGDGSFSDEMNTILDNLAARDFINWLIQTKITDGSGGGSGALVAVSPESKYGPPCPPCP (Mimetibody)”?
EC50 (mutated human GLP-2R [1]): 7.7 nM; degradation after incubation with U937 cell lysate [4]: less degradation

Which results are given for “SEQ ID NO: 79: GLP-1 peptide included as control in the characterization of the analogs [reference compound]”?
Helix (percentage of helical structure) [2]: 16.8%; Random coil (percentage) [2]: 41.9%; SEC-SLS elution / self-association state [3]: single peak with molecular weight within the expected monomer size

B1: A2G GLP-2 mimetibody V2 region variant SEQ ID NO: 11 (Fc fusion, not shown: a dimerising Fc or GST)
chain: HGDGSFSDEMNTILDNLAARDFINWLIQTKITDGSGGGSGALVAVSSESKYGPPCPPCP
Which EC50 (nM), cAMP expression assay [5] does the source give for B1 here?
Its EC50 (nM), cAMP expression assay is 3.1 nM.

B2: GLP-2 mimetibody Pro substitution variant SEQ ID NO: 42 (Fc fusion, not shown: a dimerising Fc or GST)
chain: HGDGSFSDEMNTILDNLAARDFINWLIQTKITDGSGGGSGALVPVSSESKYGPPCPPCP
Which EC50 (nM), cAMP expression assay [5] does the source give for B2 here?
The EC50 (nM), cAMP expression assay was 3.6 nM.

B3: GLP-2 mimetibody Pro substitution variant SEQ ID NO: 43 (Fc fusion, not shown: a dimerising Fc or GST)
chain: HGDGSFSDEMNTILDNLAARDFINWLIQTKITDGSGGGSGALVAVPSESKYGPPCPPCP
Which EC50 (nM), cAMP expression assay [5] does the source give for B3 here?
Its EC50 (nM), cAMP expression assay is 4.8 nM.

B4: GLP-2 mimetibody Pro substitution variant SEQ ID NO: 44 (Fc fusion, not shown: a dimerising Fc or GST)
chain: HGDGSFSDEMNTILDNLAARDFINWLIQTKITDGSGGGSGALVAVSPESKYGPPCPPCP
For B4, which EC50 (nM), cAMP expression assay [5] is on record?
Its EC50 (nM), cAMP expression assay is 7.7 nM.

B5: GLP-2 mimetibody Pro substitution variant SEQ ID NO: 45 (Fc fusion, not shown: a dimerising Fc or GST)
chain: HGDGSFSDEMNTILDNLAARDFINWLIQTKITDGSGGGSGALVAVSSESKPGPPCPPCP
Which EC50 (nM), cAMP expression assay [5] does the source give for B5 here?
The EC50 (nM), cAMP expression assay was 5.8 nM.

B6: GLP-2(A2G, N16G, L17Q) (peptide)
peptide: HGDGSFSDEMNTILDGQAARDFINWLIQTKITD
notes: Synthetic analog of human GLP-2, >95% purity; also called GLP-2(A2G,N16G, L17Q) peptide
Which results are given for B6?
binding result [6]: no binding (tested: 1 mg/ml); cAMP in Vitro EC50 values (mutated human GLP-2R [7]): 3.5 nM; activity in cAMP expression assay, fold less than wild type GLP-2 (mutated human GLP-2R [8]): 2 fold

B7: GLP-2(A2G, L17Q) (peptide)
peptide: HGDGSFSDEMNTILDNQAARDFINWLIQTKITD
notes: Synthetic analog of human GLP-2, >95% purity; also called GLP-2(A2G, L17Q) peptide
What does the source list for B7?
binding result [6]: no binding (tested: 1 mg/ml); cAMP in Vitro EC50 values (mutated human GLP-2R [7]): 5.2 nM; activity in cAMP expression assay, fold less than wild type GLP-2 (mutated human GLP-2R [8]): 3 fold

For HSDGSFSDEMNTILDNLAARDFINWLIQTKITD [A2S GLP-2 peptide], which “EC50, cAMP expression” value (mutated human GLP-2R [8]) is on record?
The value was 0.5 nM.

B8: A2S GLP-2 IgG4 mimetibody (Fc fusion)
chain: HSDGSFSDEMNTILDNLAARDFINWLIQTKITDGSGGGSGTLVTVSSESKYGPPCPPCPAPEAAGGPSVFLFPPKPDTLMISRTPEVTCVVVDVSQEDPEVQFNWYVDGVEVHNAKTKPREEQFNSTYRVVSVLTVLHQDWLNGKEYKCKVSNKGLPSSIEKTISKAKGQPREPQVYTLPPSQEEMTKNQVSLTCLVKGFYPSDIAVEWESNGQPENNYKTTPPVLDSDGSFFLYSRLTVDKSRWQEGNVFSCSVMHEALHNHYTQKSLSLSLGK
Which “EC50, cAMP expression” value (mutated human GLP-2R [8]) does the source give for B8 here?
Its value is 2.2 nM.

And the “potency in cAMP expression assay, fold less than the corresponding peptide” value (mutated human GLP-2R [8])?
Its value is ~4 fold.

B9: SEQ ID NO: 4: A2S GLP-2 mimetibody, IgG4 Hg-CH2-CH3 with S228P and P234A/L235A (protein)
chain: HSDGSFSDEMNTILDNLAARDFINWLIQTKITDGSGGGSGTLVTVSSESKYGPPCPPCPAPEAAGGPSVFLFPPKPDTLMISRTPEVTCVVVDVSQEDPEVQFNWYVDGVEVHNAKTKPREEQFNSTYRVVSVLTVLHQDWLNGKEYKCKVSNKGLPSSIEKTISKAKGQPREPQVYTLPPSQEEMTKNQVSLTCLVKGFYPSDIAVEWESNGQPENNYKTTPPVLDSDGSFFLYSRLTVDKSRWQEGNVFSCSVMHEALHNHYTQKSLSLSLGK
modifications: Mimetibody
Which “SEC-SLS association state of mimetibody” value [9] does the source give for B9 here?
Its value is “dimer”.
